This test concerns the target tau repeat domain (TauRD) conjugated to cerulean fluorescent protein (CFP) or yellow fluorescent protein (YFP). Put plainly: FRET or BRET; HEK293 biosensor cells with TauRD-CFP and TauRD-YFP; samples holding tau seeds (rTg4510 brain lysate 12 h, cell or microglia lysate 36 h, microglia conditioned media 72 h) added with 1% Lipofectamine; CFP to YFP FRET read by flow cytometry as integrated FRET density, normalised to cells given Lipofectamine only. Background: In BRET a luciferase serves as donor, and the signal depends on an acceptor being close.

The results in this text go back to publication PMC6145371.

Regarding “tau repeat domain (TauRD) conjugated to cerulean fluorescent protein (CFP) or yellow fluorescent protein (YFP)”, the normalized integrated FRET density (cells given rTg4510 microglia lysate) (normalized IFD) was 308 and the normalized integrated FRET density (cells given rTg4510 non-microglia cell lysate) (normalized IFD) worked out at 3570.
